B1: REGN10717 (antibody, human IgG4 S228P, kappa)
heavy: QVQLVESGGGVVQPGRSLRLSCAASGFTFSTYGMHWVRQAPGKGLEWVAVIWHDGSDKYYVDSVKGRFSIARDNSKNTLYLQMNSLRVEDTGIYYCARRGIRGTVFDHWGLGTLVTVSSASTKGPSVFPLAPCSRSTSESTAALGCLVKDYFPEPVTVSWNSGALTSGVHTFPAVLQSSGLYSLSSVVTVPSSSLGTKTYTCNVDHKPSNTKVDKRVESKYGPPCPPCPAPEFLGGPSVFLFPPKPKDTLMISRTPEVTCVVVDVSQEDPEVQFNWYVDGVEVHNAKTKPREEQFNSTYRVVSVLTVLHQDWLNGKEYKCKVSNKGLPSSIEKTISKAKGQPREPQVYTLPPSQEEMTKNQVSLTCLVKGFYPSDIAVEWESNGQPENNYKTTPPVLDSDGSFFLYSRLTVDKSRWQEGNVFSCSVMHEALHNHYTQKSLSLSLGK
light: DIQMTQSPSTLSASVGDRVTLTCRASQSISNKLAWYQQKPGKAPNLLIYKASNLESGVPSRFSGSGSGTEFTLTISSLQPDDFATYYCQQYNSYSWTFGQGTKVEIKRTVAAPSVFIFPPSDEQLKSGTASVVCLLNNFYPREAKVQWKVDNALQSGNSQESVTEQDSKDSTYSLSSTLTLSKADYEKHKVYACEVTHQGLSSPVTKSFNRGEC
notes: hIgG4
B2: H2aM31929N (antibody, V domains shown)
VH: QVQLVESGGGVVQPGRSLRLSCTASGITFRNYGMHWVRQAPGKGLEWVAVMWYDGSNKYYADSVKGRFTISGDNSKVYLQMNSLRAEDTAVYYCARRGTIRTAAPFDYWGQGTLVTVSS
VL: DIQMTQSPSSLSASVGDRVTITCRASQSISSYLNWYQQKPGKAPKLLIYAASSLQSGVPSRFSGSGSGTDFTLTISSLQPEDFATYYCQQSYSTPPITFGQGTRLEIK
notes: also called H2aM31929N/REGN10728 (lot H2aM31929N-L1)
B3: H4H31265P2 (antibody, human IgG4 S228P, kappa, V domains shown)
VH: QVQLVESGGGVVQPGRSLRLSCTASGFTFRSYGMHWVRQAPGKGLEWVSVIWIDGNNIYYADSVKGRFTISRDNSKNTLYLQMDSLRAEDTAVYYCARRLAITSAAPFDYWGQGTLVTVSS
VL: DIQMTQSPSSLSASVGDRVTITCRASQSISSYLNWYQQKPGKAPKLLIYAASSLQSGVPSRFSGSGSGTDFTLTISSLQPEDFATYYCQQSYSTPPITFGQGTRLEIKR
notes: also called H4H31265P2/REGN5972 (lot H4H31265P2-L1)
B4: REGN10716 (antibody, human IgG4 S228P, kappa)
heavy: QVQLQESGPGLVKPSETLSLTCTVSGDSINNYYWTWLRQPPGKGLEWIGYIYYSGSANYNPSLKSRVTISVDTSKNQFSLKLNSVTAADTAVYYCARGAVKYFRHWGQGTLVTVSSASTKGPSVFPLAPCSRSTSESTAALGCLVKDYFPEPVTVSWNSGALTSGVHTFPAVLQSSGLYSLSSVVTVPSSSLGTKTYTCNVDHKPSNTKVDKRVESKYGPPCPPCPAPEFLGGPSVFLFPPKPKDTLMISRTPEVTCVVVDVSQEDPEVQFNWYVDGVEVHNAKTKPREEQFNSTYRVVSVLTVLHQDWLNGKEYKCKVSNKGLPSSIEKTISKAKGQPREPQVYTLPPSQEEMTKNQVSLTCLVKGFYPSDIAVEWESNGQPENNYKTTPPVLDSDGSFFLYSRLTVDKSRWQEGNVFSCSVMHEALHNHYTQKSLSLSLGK
light: EIVLTQSPGTLSLSPGERATLSCRASQTINHNNLAWYQQRPGQAPRLLIYGASNRATAIPDRFSGSGSGTDFTLTISRLEPEDFEVYSCQQYGSLPLTFGGGTKVEIKRTVAAPSVFIFPPSDEQLKSGTASVVCLLNNFYPREAKVQWKVDNALQSGNSQESVTEQDSKDSTYSLSSTLTLSKADYEKHKVYACEVTHQGLSSPVTKSFNRGEC
notes: hIgG4
B5: REGN14572 (antibody, human IgG1, kappa, N297Q)
heavy: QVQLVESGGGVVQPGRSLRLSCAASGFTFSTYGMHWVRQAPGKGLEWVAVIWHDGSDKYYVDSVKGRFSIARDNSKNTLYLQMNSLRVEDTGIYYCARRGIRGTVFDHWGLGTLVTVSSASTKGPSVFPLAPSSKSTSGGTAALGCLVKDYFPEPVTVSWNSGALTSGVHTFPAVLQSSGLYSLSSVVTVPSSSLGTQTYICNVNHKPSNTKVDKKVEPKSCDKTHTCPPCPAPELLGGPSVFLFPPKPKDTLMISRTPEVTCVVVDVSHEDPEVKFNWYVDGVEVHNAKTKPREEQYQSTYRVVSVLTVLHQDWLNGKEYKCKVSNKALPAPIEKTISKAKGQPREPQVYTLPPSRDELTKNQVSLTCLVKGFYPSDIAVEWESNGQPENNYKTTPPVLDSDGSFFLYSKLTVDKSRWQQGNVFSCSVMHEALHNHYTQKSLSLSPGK
light: B1 light
B6: REGN14571-M3004 (antibody, human IgG1, kappa, N297Q)
heavy chain: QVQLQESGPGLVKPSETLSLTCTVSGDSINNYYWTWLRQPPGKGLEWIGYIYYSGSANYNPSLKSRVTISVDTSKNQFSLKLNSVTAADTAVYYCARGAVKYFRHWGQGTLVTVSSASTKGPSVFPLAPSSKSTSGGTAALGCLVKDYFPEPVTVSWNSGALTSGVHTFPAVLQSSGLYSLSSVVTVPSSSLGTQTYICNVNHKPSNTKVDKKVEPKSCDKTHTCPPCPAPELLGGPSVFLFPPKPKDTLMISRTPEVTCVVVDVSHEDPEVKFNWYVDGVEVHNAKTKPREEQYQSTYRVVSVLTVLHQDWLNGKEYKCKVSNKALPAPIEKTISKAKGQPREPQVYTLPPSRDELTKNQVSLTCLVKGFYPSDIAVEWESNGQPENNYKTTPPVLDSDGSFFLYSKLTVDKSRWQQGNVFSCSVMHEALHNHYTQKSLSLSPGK
light chain: B4 light
modifications: N297Q; DHT linker-payload M3004 conjugated, DAR about 4
B7: REGN10712 (antibody, human IgG4 S228P, lambda, V domains shown)
VH: QVQLVESGGGVVQPGRSLRLSCAASGFTFSTYGMYWVRQTPGKGLEWVTVISFDGNKKYYADSVKGRFTISRDNSKNTLFLQMNSLKTEDTAVYYCAKSSNWNYGSFDIWGQGTMVTVSS
VL: QSVLTQPPSVSGAPGQRVTISCTGSSSNIGAGYDVHWYQQLPGTAPRLLISYNSNRPSGVPDRFSGSKSGTSASLAITGLQAEDEADYYCQSYDRSLSGSVFGGGTQLTVLG
notes: hIgG4

molecular target: T1, human CACNG1 expressed on cells (human, UniProt Q06432 1-222); test: cell-based or functional assay
T1 sequence (Q06432 whole entry): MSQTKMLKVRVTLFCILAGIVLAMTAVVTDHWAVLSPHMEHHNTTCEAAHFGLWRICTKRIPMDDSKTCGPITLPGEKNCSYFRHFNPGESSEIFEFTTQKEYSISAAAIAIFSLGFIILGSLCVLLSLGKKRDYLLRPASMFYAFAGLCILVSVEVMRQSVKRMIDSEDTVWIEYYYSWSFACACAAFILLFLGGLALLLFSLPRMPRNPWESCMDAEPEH

Binder | % KILL, indirect cell killing, HEK293/hCACNG1 [%] | % KILL, indirect cell killing, HuSKM [%] | EC50/IC50, indirect cell killing, HEK293/hCACNG1 [nM] | EC50/IC50, indirect cell killing, HuSKM [nM]
B1 | 97 | 99.6 | 0.000806 | 0.0364
B2 | 95 | 96.3 | 0.00277 | 0.031
B3 | 94.6 | 95.6 | 0.00245 | 0.56
B4 | 95.1 | 61.7 | 0.00295 | 0.34

molecular target: T2, mouse CACNG1 expressed on cells (mouse, UniProt O70578 1-223); test: cell-based or functional assay
T2 sequence (looked up): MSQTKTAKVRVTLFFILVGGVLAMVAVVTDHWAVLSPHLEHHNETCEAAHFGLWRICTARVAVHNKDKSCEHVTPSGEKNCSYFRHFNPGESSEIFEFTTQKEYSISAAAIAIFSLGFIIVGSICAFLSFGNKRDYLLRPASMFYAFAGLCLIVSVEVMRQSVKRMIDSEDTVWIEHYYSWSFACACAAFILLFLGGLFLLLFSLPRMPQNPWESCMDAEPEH

Binder | % KILL, indirect cell killing, C2C12 [%] | % KILL, indirect cell killing, HEK293/mCACNG1 [%] | EC50/IC50, indirect cell killing, C2C12 [nM] | EC50/IC50, indirect cell killing, HEK293/mCACNG1 [nM]
B1 | 99.8 | 96 | 0.00356 | 0.00118
B2 | 7.5 | 18.3 | > 10 | > 1
B3 | 3.4 | 22.9 | > 10 | > 1
B4 | 99.9 | 91.2 | 0.0167 | 0.00893

molecular target: T1, human CACNG1 expressed on cells; test: cell-based or functional assay; remark: another data set of the same source

Binder | EC50 of androgen receptor luciferase reporter activation (RLU) by the DHT conjugate REGN14572-M3004 in hCACNG1.AR.Luc LNCaP cells, 24 hours; concentration adjusted for DAR [nM] | EC50 of androgen receptor luciferase reporter activation (RLU) by the DHT conjugate REGN14571-M3004 in hCACNG1.AR.Luc LNCaP cells, 24 hours; concentration adjusted for DAR [nM]
B5 | 11.2 | –
B6 | – | 7.83

molecular target: T1, human CACNG1 expressed on cells; test: cell-based or functional assay; remark: another data set of the same source

Binder | EC50 of androgen receptor luciferase reporter activation (RLU) by the DHT conjugate REGN14572-M3004 in hCACNG1.AR.Luc LNCaP cells, 48 hours; concentration adjusted for DAR [nM] | EC50 of androgen receptor luciferase reporter activation (RLU) by the DHT conjugate REGN14571-M3004 in hCACNG1.AR.Luc LNCaP cells, 48 hours; concentration adjusted for DAR [nM]
B5 | 11.9 | –
B6 | – | 6.95

molecular target: T1, human CACNG1 expressed on cells; test: cell-based or functional assay; remark: another data set of the same source

Binder | EC50 of androgen receptor luciferase reporter activation (RLU) by the DHT conjugate REGN14572-M3004 in hCACNG1.AR.Luc LNCaP cells, 72 hours; concentration adjusted for DAR [nM] | EC50 of androgen receptor luciferase reporter activation (RLU) by the DHT conjugate REGN14571-M3004 in hCACNG1.AR.Luc LNCaP cells, 72 hours; concentration adjusted for DAR [nM]
B5 | 10.3 | –
B6 | – | 5.44

molecular target: T1, human CACNG1 expressed on cells; test: imaging cell binding, HEK293/hCACNG1
Protocol: (§1) HuSKM were seeded in collagen-coated 96-well plates (Greiner Bio-One #655956) at 8,500 cells/well and grown for 24 hours. The growth media was changed to MyoTonic Differentiation Media (Cook Myosite Cat #MD-5555) and replaced every 2 days. Myotubes were assayed after 6 days of differentiation. C2C12 mouse myoblasts were maintained in DMEM with 10% FBS and 1% penicillin-streptomycin supplement and grown in a 37° C. incubator with 5% CO₂. C2C12 cells were seeded in collagen-coated 96-well plates (Greiner Bio-One #655956) at 10,000 cells/well for the cell binding assay and 5,000 cells/well for the cell killing assay. After 24 hours, growth media was replaced with differentiation media (DMEM with 2% horse serum) and placed in a 37° C. incubator with 7.5% CO₂. C2C12 myotubes were assayed after 3 days of differentiation. HEK293/hCACNG1, HEK293/mCACNG1, and HEK293 cells were seeded at 10,000 cells (cell binding assay) or 2,000 (cell killing assay) per well in 96-well black collagen coated plates (Greiner Bio-One, cat #655956) in complete growth media and grown overnight at 37° C. in 5% CO₂.
(§2) Relative binding of anti-CACNG1 antibodies was assessed across the entire panel of cell lines via imaging analysis. […] After one wash with antibody dilution buffer, samples were fixed in CytoFix (BD Biosciences, Cat #554655) diluted 1:1 in PBS and supplemented with a 1:2000 dilution of Hoechst 33342 (Thermo, Cat #H1399) for 20 minutes on ice. Images were acquired with a 10× objective on the Opera Phenix (Perkin Elmer) and relative fluorescence units (RFU) was determined using Harmony software (Perkin Elmer).

Binder | EC50 [nM] | S/N [fold]
B1 | > 100 | 77.4
B2 | 6.2 | 84
B3 | 11 | 247
B4 | > 100 | 35.9

molecular target: T2, mouse CACNG1 expressed on cells; test: imaging cell binding, HEK293/mCACNG1
Protocol: as §1, §2

Binder | EC50 [nM] | S/N [fold]
B1 | > 100 | 23.6
B2 | – | 1
B3 | – | 1.2
B4 | > 100 | 21.4

molecular target: T1, human CACNG1 expressed on cells; test: imaging cell binding, HuSKM myotubes
Protocol: as §1, §2

Binder | EC50 [nM] | S/N [fold]
B1 | 69 | 292
B2 | 1.9 | 252
B3 | 3.3 | 250
B4 | 13 | 466

molecular target: T1, human CACNG1 expressed on cells; test: imaging cell binding, HEK293/hCACNG1; remark: another data set of the same source
Protocol: as §1, §2

Binder | EC50 [nM] | S/N [fold]
B4 | > 100 | 2.2

molecular target: T1, human CACNG1 expressed on cells; test: imaging cell binding, HuSKM myotubes; remark: another data set of the same source
Protocol: as §1, §2

Binder | EC50 [nM] | S/N [fold]
B7 | 0.053 | 102
B4 | 12 | 81.1

molecular target: T3, nanodisc embedded human CACNG1 expressed with a C-terminal PADRE-Flag-His tag (human, UniProt Q06432 1-222); test: SPR, anti-His-captured nanodisc, 25 C
T3 construct: Captured on an anti-His Biacore surface; also called human CACNG1 nanodisc; CACNG1 nanodisc; not shown: C-terminal tag
Protocol: Equilibrium dissociation constants (KD values) for nanodisc embedded human CACNG1 expressed with a C-terminal […] tag (human CACNG1 nanodisc; concentration 0.82 mg/ml) binding to purified anti-CACNG1 antibodies were determined using a real-time surface plasmon resonance biosensor technology with a Biacore T200 instrument. The CM5 Biacore sensor surface was derivatized by amine coupling with a monoclonal mouse anti-His antibody (Cytiva; Marlborough, MA). All Biacore binding studies were performed in a buffer composed of 0.01M HEPES, 0.15M NaCl, 1 mM CaCl₂, 0.5 mM MgCl₂, pH 7.4 (HBS-N++ running buffer). Different concentrations of anti-CACNG1 antibodies (ranging from 300 nM to 12 nM in 5-fold serial dilutions) prepared in HBS-N++ running buffer were injected over the captured human CACNG1 nanodisc at a flow rate of 30 μL/minute. Antibody association was monitored for 2 minutes while dissociation was monitored in HBS-N++ running buffer for 5 minutes. At the end of each cycle, the human CACNG1 nanodisc capture surface was regenerated using three 10 second injections of 10 mM Gly pH1.5. All binding kinetics experiments were performed at 25° C.
The specific SPR-Biacore sensorgrams were obtained by a double referencing procedure. The double referencing was performed by first subtracting the signal of each injection over a reference surface (anti-His) from the signal over the experimental surface (anti-His captured human CACNG1 nanodisc) thereby removing contributions from refractive index changes. In addition, running buffer injections were performed to allow subtraction of the signal changes resulting from the dissociation of captured antibodies from the coupled anti-His surface. Kinetic association (kₐ) and dissociation ([…]) rate constants were determined by fitting the real-time sensorgrams to a 1:1 binding model using Scrubber v2.0c curve fitting software. Binding dissociation equilibrium constants (KD) and dissociative half-lives (t %) were calculated from the kinetic rate constants as: […]

T3 sequence (Q06432 whole entry): as the sequence (Q06432 whole entry) above

Binder | Kd [nM] | koff [s⁻¹] | kon [M⁻¹ s⁻¹] | mAb bound at 300 nM [RU] | t1/2 [min]
B1 | 104 | 0.0304 | 294000 | 7 | 0.4
B7 | 4.53 | 0.00332 | 733000 | 31 | 3.5
B2 | 0.745 | 0.000559 | 750000 | 25 | 20.7
B3 | 81 | 0.0084 | 104000 | 14 | 1.4
B4 | 0.114 | 8.36e-05 | 730000 | 31 | 138

molecular target: T2, mouse CACNG1 expressed on cells; test: imaging cell binding, C2C12 mouse myotubes
Protocol: as §1, §2

Binder | EC50 [nM] | S/N [fold] | binding result
B1 | > 100 | 4.9 | –
B2 | – | 1.2 | no binding (tested: 100 nM highest tested)
B3 | – | 0.8 | no binding (tested: 100 nM highest tested)
B4 | > 100 | 6.3 | –

molecular target: T2, mouse CACNG1 expressed on cells; test: imaging cell binding, C2C12 mouse myotubes; remark: another data set of the same source
Protocol: as §1, §2

Binder | EC50 [nM] | S/N [fold]
B7 | > 100 | 8.6
B4 | > 100 | 5.2
